One may read the pKd as the negative decadic logarithm of the Kd, by convention in mol/L.

Among the targets are MAGI1_1, Q96QZ7; GOPC, Q9HD26; GRIP2_6, Q9C0E4; PARD3_3, Q8TEW0; DLG2_3, Q15700; GRIP2_7, Q9C0E4; AHNAK1, Q09666; Inadl_9, Q8NI35; DLG1_3, Q12959; GORASP1, Q9BQQ3; GRID2IP_2, A4D2P6; Inadl_8, Q8NI35.
Common to all, as to assay: holdup assay
Common to all, as to set-up: key: below the threshold = too weak to quantify, mostly under pKd 3.1 to 4
Common to all, as to conditions: plain residues with an end cap or a label only (N-terminal biotin on a linker: ado-ado)

In the next assay the target is T1, APBA1_1, Q02410.
T1 sequence (Q02410 651-752, limits assumed, looked up): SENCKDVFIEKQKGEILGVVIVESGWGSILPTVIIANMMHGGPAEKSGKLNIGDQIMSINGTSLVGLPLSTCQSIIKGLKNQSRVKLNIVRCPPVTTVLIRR

Another assay has as its target T2, GRIP1_5, Q9Y3R0.
T2 sequence (Q9Y3R0 568-668, limits assumed, looked up): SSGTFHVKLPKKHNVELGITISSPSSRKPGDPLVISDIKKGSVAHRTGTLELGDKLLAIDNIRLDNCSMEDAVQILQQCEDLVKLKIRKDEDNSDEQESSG

In another assay the target is T3, APBA3_1, O96018.
T3 sequence (O96018 389-490, limits assumed, looked up): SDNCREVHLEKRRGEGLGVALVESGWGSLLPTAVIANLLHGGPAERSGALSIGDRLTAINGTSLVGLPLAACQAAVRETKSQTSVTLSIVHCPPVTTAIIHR

For the next assay, the target named is T4, APBA2_1, Q99767.
T4 sequence (Q99767 563-664, limits assumed, looked up): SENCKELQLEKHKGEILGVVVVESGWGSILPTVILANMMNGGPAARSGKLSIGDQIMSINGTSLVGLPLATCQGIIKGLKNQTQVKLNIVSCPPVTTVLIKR

The target in a further assay is T5, SHANK1, Q9Y566.
T5 sequence (Q9Y566 658-767, limits assumed, looked up): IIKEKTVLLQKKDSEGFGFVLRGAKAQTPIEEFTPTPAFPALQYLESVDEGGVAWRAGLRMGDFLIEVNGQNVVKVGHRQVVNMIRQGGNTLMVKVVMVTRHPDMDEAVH

In a further assay the target is T6, MPDZ_5, O75970.
T6 sequence (O75970 695-796, limits assumed, looked up): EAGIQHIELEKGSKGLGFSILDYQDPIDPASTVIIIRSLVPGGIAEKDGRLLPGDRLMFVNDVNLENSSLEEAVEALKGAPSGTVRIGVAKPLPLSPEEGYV

For a further assay, the target named is T7, GRIP1_2, Q9Y3R0.
T7 sequence (Q9Y3R0 145-248, limits assumed, looked up): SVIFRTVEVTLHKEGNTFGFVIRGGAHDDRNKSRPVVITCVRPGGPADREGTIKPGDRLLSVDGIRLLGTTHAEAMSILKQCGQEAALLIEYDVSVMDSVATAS

The next assay has as its target T8, TJP3_3, O95049.
T8 sequence (O95049 375-456, limits assumed, looked up): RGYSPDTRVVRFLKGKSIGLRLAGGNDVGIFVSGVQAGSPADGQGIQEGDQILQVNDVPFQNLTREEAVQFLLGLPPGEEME

The next assay has as its target T9, SNTB1, Q13884.
T9 sequence (Q13884 107-205, limits assumed, looked up): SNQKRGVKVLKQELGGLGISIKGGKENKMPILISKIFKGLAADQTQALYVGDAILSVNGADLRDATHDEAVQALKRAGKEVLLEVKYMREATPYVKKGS

A further assay deals with T10, NHERF3_1, Q5T2W1.
T10 sequence (Q5T2W1 4-100, limits assumed, looked up): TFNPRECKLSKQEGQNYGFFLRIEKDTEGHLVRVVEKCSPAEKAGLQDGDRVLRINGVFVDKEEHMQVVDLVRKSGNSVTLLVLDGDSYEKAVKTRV

The target of the next assay is T11, SNTG2, Q9NY99.
T11 sequence (Q9NY99 68-166, limits assumed, looked up): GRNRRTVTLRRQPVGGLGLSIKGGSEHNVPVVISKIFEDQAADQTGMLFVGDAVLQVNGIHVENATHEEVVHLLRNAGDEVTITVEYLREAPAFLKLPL

The target of a further assay is T12, SNTG1, Q9NSN8.
T12 sequence (Q9NSN8 52-150, limits assumed, looked up): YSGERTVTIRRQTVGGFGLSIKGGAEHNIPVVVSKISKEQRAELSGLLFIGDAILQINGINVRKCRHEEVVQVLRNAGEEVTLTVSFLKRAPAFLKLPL

Sequence of PARD3_3, Q8TEW0 (Q8TEW0 582-685): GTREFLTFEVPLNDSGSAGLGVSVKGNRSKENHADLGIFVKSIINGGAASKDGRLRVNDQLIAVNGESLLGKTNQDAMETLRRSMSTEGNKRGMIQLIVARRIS
Sequence of Inadl_9, Q8NI35 (Q8NI35 1530-1615): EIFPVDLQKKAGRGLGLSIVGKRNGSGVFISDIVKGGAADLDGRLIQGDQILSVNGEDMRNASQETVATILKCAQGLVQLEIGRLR
Sequence of GRIP2_7, Q9C0E4 (Q9C0E4 934-1023): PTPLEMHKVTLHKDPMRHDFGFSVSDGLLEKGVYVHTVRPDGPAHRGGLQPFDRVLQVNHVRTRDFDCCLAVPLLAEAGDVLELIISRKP
Sequence of MAGI1_1, Q96QZ7 (Q96QZ7 1-106): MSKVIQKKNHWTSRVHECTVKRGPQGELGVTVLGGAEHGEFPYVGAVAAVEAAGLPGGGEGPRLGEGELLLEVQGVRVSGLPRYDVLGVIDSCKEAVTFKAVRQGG
Sequence of GRID2IP_2, A4D2P6 (A4D2P6 272-370): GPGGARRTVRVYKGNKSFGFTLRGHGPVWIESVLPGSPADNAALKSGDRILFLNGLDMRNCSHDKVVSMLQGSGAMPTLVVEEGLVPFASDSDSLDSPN
Sequence of GRIP2_6, Q9C0E4 (Q9C0E4 648-740): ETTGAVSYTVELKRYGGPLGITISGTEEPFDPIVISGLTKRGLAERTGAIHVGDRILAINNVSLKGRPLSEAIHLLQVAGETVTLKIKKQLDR
Sequence of Inadl_8, Q8NI35 (Q8NI35 1425-1530): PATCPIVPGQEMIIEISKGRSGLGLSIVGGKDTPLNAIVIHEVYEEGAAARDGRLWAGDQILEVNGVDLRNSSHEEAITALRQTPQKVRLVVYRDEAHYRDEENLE
Sequence of GORASP1, Q9BQQ3 (Q9BQQ3 1-208): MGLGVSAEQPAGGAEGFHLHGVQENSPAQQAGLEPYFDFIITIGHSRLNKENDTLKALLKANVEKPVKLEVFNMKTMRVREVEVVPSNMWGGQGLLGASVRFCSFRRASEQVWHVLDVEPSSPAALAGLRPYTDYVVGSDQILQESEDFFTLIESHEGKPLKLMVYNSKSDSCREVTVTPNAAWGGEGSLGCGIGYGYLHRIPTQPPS
Sequence of AHNAK1, Q09666 (Q09666 4-100): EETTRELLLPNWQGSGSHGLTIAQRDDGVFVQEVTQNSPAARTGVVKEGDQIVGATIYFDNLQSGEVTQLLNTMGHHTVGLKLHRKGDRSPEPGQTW
Sequence of DLG1_3, Q12959 (Q12959 457-571): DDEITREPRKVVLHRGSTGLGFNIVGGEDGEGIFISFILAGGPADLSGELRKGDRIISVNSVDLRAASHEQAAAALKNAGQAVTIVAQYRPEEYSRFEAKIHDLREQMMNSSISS

Take VGIERETDVL [EZH1, Q92800]: the negative logarithm of the Kd (pKd) result with MAGI1_1, Q96QZ7 is given as “below the threshold”; with GOPC, Q9HD26 it was “below the threshold”; in the assay with APBA1_1, Q02410, “below the threshold”; with GRIP2_6, Q9C0E4, “below the threshold”; with GRIP1_5, Q9Y3R0 it was “below the threshold”; with APBA3_1, O96018, “below the threshold”. Further, the pKd with PARD3_3, Q8TEW0 is 3.67; in the assay with DLG2_3, Q15700, “below the threshold”; in the assay with APBA2_1, Q99767, “below the threshold”; in the assay with GRIP2_7, Q9C0E4, “below the threshold”; in the assay with SHANK1, Q9Y566, “below the threshold”; with AHNAK1, Q09666, “below the threshold”. The negative-log Kd (pKd) entry in the assay with Inadl_9, Q8NI35 was “below the threshold”; with MPDZ_5, O75970 it was “below the threshold”; with GRIP1_2, Q9Y3R0, “below the threshold”; with TJP3_3, O95049, “below the threshold”; with SNTB1, Q13884, 4.52; with DLG1_3, Q12959, “below the threshold”. For the same molecule, the negative logarithm of the Kd (pKd) result with NHERF3_1, Q5T2W1 was “below the threshold”; with GORASP1, Q9BQQ3 it was “below the threshold”; in the assay with GRID2IP_2, A4D2P6, “below the threshold”; with SNTG2, Q9NY99 it was “below the threshold”; with Inadl_8, Q8NI35 it was “below the threshold”; with SNTG1, Q9NSN8, “below the threshold”.

In the case of EGGKKRESEA [APPL1, Q9UKG1], the negative-log Kd (pKd) result is listed as “below the threshold” with MAGI1_1, Q96QZ7; “below the threshold” in the assay with GOPC, Q9HD26; “below the threshold” with APBA1_1, Q02410; “below the threshold” with GRIP2_6, Q9C0E4; “below the threshold” with GRIP1_5, Q9Y3R0; “below the threshold” in the assay with APBA3_1, O96018. The negative logarithm of the Kd (pKd) result with PARD3_3, Q8TEW0 is “below the threshold”; in the assay with DLG2_3, Q15700, 3.73; with APBA2_1, Q99767, “below the threshold”; with GRIP2_7, Q9C0E4, “below the threshold”; with SHANK1, Q9Y566, “below the threshold”; with AHNAK1, Q09666 it was “below the threshold”. In addition, the pKd result with Inadl_9, Q8NI35 is “below the threshold”; in the assay with MPDZ_5, O75970 it was “below the threshold”; in the assay with GRIP1_2, Q9Y3R0, “below the threshold”; in the assay with TJP3_3, O95049, “below the threshold”; with SNTB1, Q13884, “below the threshold”; in the assay with DLG1_3, Q12959, “below the threshold”. Besides, the pKd result with NHERF3_1, Q5T2W1 was “below the threshold”; with GORASP1, Q9BQQ3 it was “below the threshold”; in the assay with GRID2IP_2, A4D2P6 it was “below the threshold”; with SNTG2, Q9NY99, “below the threshold”; with Inadl_8, Q8NI35 it was “below the threshold”; with SNTG1, Q9NSN8, “below the threshold”.

Take GSSSKEGTSV [RRBP1, Q9P2E9]: the negative-log Kd (pKd) result with MAGI1_1, Q96QZ7 was “below the threshold”; in the assay with GOPC, Q9HD26, 3.62; in the assay with APBA1_1, Q02410, “below the threshold”; with GRIP2_6, Q9C0E4 it was “below the threshold”; with GRIP1_5, Q9Y3R0, “below the threshold”; in the assay with APBA3_1, O96018, “below the threshold”. Besides, the pKd entry in the assay with PARD3_3, Q8TEW0 was “below the threshold”; with DLG2_3, Q15700, 3.9; in the assay with APBA2_1, Q99767 it was “below the threshold”; with GRIP2_7, Q9C0E4, “below the threshold”; in the assay with SHANK1, Q9Y566, “below the threshold”; with AHNAK1, Q09666, “below the threshold”. Further, the pKd with Inadl_9, Q8NI35 is 3.57; with MPDZ_5, O75970, “below the threshold”; with GRIP1_2, Q9Y3R0, “below the threshold”; with TJP3_3, O95049, “below the threshold”; with SNTB1, Q13884 it was 3.9; in the assay with DLG1_3, Q12959 it was 3.57. In addition, the negative-log Kd (pKd) entry with NHERF3_1, Q5T2W1 was “below the threshold”; in the assay with GORASP1, Q9BQQ3, “below the threshold”; with GRID2IP_2, A4D2P6, 3.76; in the assay with SNTG2, Q9NY99, 3.59; in the assay with Inadl_8, Q8NI35, 3.91; with SNTG1, Q9NSN8, 3.63.

For ADRDHASDQL [CTBP1, Q13363], the pKd result is on record as “below the threshold” in the assay with MAGI1_1, Q96QZ7; “below the threshold” with GOPC, Q9HD26; “below the threshold” in the assay with APBA1_1, Q02410; “below the threshold” with GRIP2_6, Q9C0E4; “below the threshold” in the assay with GRIP1_5, Q9Y3R0; “below the threshold” in the assay with APBA3_1, O96018. For the same molecule, the pKd result with PARD3_3, Q8TEW0 is “below the threshold”; with DLG2_3, Q15700, “below the threshold”; in the assay with APBA2_1, Q99767, “below the threshold”; with GRIP2_7, Q9C0E4, “below the threshold”; in the assay with SHANK1, Q9Y566, “below the threshold”; in the assay with AHNAK1, Q09666, “below the threshold”. Besides, the negative logarithm of the Kd (pKd) result with Inadl_9, Q8NI35 is reported as “below the threshold”; in the assay with MPDZ_5, O75970, “below the threshold”; with GRIP1_2, Q9Y3R0, “below the threshold”; with TJP3_3, O95049, “below the threshold”; with SNTB1, Q13884, “below the threshold”; with DLG1_3, Q12959, “below the threshold”. In addition, the pKd with NHERF3_1, Q5T2W1 was 4.5; with GORASP1, Q9BQQ3, “below the threshold”; in the assay with GRID2IP_2, A4D2P6, “below the threshold”; in the assay with SNTG2, Q9NY99 it was “below the threshold”; with Inadl_8, Q8NI35 it was “below the threshold”; with SNTG1, Q9NSN8, “below the threshold”.

The record behind these values is publication PMC9482650, “Quantitative fragmentomics allow affinity mapping of interactomes” (Nature Communications, 2022).
